Publication PMC4729957, “The Atg1–kinase complex tethers Atg9-vesicles to initiate autophagy” (Nature Communications, 2016)

B3: Atg13 (natural protein, S. cerevisiae, UniProt Q06628 1-738, looked up)
chain: MVAEEDIEKQVLQLIDSFFLKTTLLICSTESSRYQSSTENIFLFDDTWFEDHSELVSELPEIISKWSHYDGRKELPPLVVETYLDLRQLNSSHLVRLKDHEGHLWNVCKGTKKQEIVMERWLIELDNSSPTFKSYSEDETDVNELSKQLVLLFRYLLTLIQLLPTTELYQLLIKSYNGPQNEGSSNPITSTGPLVSIRTCVLDGSKPILSKGRIGLSKPIINTYSNALNESNLPAHLDQKKITPVWTKFGLLRVSVSYRRDWKFEINNTNDELFSARHASVSHNSQGPQNQPEQEGQSDQDIGKRQPQFQQQQQPQQQQQQQQQQQRQHQVQTQQQRQIPDRRSLSLSPCTRANSFEPQSWQKKVYPISRPVQPFKVGSIGSQSASRNPSNSSFFNQPPVHRPSMSSNYGPQMNIEGTSVGSTSKYSSSFGNIRRHSSVKTTENAEKVSKAVKSPLQPQESQEDLMDFVKLLEEKPDLTIKKTSGNNPPNINISDSLIRYQNLKPSNDLLSEDLSVSLSMDPNHTYHRGRSDSHSPLPSISPSMHYGSLNSRMSQGANASHLIARGGGNSSTSALNSRRNSLDKSSNKQGMSGLPPIFGGESTSYHHDNKIQKYNQLGVEEDDDDENDRLLNQMGNSATKFKSSISPRSIDSISSSFIKSRIPIRQPYHYSQPTTAPFQAQAKFHKPANKLIDNGNRSNSNNNNHNGNDAVGVMHNDEDDQDDDLVFFMSDMNLSKEG
notes: Atg13, S. cerevisiae BY4741, open reading frame from genomic DNA; source: E. coli Rosetta, purified (Ni-NTA, anion exchange)

Tests used:
[1] = biological target: T1, Atg9^core (Atg9^281–779), reconstituted in proteoliposomes (S. cerevisiae, UniProt Q12142 281-779); experiment: co-floatation with proteoliposomes; Atg9 variant held in proteoliposomes (synthetic lipids without PI), partner in solution at 1:1, Nycodenz step gradient, 650,000g 2 h at 4 °C, 25 mM HEPES pH 7.0, 100 mM NaCl; top fraction read by SDS–PAGE or α-myc immunoblot; conditions: both partners purified
T1 construct: Atg9, S. cerevisiae BY4741, conserved core region, residues 281–779; modified pET28a(+) vector; about 50% of the protein in the proteoliposomes has its cytoplasmic domains outside; liposomes of cholesterol, POPE, POPC, POPS, without PI; also called Atg9–PLs; Atg9-PL; source: E. coli Rosetta, solubilised in LDAO, purified (Ni-NTA, SEC), reconstituted in liposomes; not shown: His tag, C-terminal, …
T1 sequence (looked up): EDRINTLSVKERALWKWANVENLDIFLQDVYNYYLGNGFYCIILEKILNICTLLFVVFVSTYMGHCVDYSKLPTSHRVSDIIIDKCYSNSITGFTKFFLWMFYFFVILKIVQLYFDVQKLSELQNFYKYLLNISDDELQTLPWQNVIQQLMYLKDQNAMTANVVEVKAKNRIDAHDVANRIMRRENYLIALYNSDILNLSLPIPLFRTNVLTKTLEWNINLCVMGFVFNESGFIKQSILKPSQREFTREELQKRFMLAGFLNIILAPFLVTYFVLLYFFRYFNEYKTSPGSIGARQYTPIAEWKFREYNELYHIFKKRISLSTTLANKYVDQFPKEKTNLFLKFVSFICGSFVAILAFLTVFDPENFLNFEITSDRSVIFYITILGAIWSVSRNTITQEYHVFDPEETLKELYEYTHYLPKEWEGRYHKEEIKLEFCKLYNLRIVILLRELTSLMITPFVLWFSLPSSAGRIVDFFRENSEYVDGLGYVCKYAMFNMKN

[2] = biological target: the molecule itself; experiment: dynamic light scattering; Stokes radii (RH) of the purified proteins and complexes in solution
Atg13 = biological target: B3; experiment: SEC; complexes assembled from purified subunits or subcomplexes, 30 min at room temperature, then gel filtration on Superose 6; conditions: both partners purified
Atg1 [3] = biological target: T2, Atg1 (S. cerevisiae, UniProt P53104 1-897, phosphothreonine at 226 (T226)); experiment: SEC; ATP added to fully assembled Atg1^PC (Atg13, Atg29 and Atg1 become phosphorylated by Atg1); SEC and SDS–PAGE of the fractions; conditions: both partners purified
T2 construct: Atg1, S. cerevisiae BY4741, open reading frame from genomic DNA; also called full-length Atg1; Atg1–kinase; source: High Five (BTI-TN-5B1–4) insect cells, purified (Ni-NTA, SEC)
T2 sequence (looked up): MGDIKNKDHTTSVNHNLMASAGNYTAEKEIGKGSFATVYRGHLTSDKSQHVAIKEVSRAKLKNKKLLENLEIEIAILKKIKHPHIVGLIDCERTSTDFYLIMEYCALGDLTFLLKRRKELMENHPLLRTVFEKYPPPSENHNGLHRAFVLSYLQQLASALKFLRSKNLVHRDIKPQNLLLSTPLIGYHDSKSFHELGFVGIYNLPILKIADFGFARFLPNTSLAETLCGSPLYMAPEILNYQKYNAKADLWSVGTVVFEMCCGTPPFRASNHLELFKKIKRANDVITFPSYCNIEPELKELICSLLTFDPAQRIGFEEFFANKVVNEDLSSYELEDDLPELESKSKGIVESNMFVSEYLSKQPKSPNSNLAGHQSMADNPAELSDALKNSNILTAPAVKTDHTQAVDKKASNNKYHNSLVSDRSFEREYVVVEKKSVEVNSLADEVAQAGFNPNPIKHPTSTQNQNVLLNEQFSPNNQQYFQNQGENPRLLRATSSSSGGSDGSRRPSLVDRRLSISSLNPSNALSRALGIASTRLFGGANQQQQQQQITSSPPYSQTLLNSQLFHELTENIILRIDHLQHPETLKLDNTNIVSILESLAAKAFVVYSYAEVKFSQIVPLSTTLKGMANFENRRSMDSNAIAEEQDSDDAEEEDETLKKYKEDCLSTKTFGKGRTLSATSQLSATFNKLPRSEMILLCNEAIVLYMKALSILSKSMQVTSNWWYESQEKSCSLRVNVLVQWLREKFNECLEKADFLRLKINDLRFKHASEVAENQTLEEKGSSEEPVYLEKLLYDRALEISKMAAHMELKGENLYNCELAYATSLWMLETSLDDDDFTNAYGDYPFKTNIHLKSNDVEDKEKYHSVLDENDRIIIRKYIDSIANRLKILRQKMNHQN

Atg1 [4] = biological target: T2, Atg1; experiment: SEC; complexes assembled from purified subunits or subcomplexes, 30 min at room temperature, then gel filtration on Superose 6; conditions: both partners purified

B1: Atg17 (natural protein, S. cerevisiae, UniProt Q06410 1-417, looked up)
chain: MNEADVTKFVNNARKTLTDAQLLCSSANLRIVDIKKKLSSWQLSISKLNFLIVGLRQQGKFLYTILKEGIGTKLIQKQWNQAVLVVLVDEMKYWQYEITSKVQRLDGIVNELSISEKDDTDPSKLGDYISRDNVNLLNDKLKEVPVIERQIENIKLQYENMVRKVNKELIDTKLTDVTQKFQSKFGIDNLMETNVAEQFSRELTDLEKDLAEIMNSLTQHFDKTLLLQDKKIDNDEREELFKVVQGDDKELYNIFKTLHEVIDDVDKTILNLGQFLQAKIKEKTELHSEVSEIINDFNRNLEYLLIFKDISNLIDSFKNSCTQDIQTTKELCEFYDNFEESYGNLVLEAKRRKDVANRMKTILKDCEKQLQNLDAQDQEERQNFIAENGTYLPETIWPGKIDDFSSLYTLNYNVKNP
notes: Atg17, S. cerevisiae BY4741, open reading frame from genomic DNA; expressed from pST39; also called full-length Atg17; Atg17-dimer; source: E. coli Rosetta, purified (Ni-NTA, SEC); not shown: His6, N-terminal, cleaved
In the case of B1, the binding result [1] is reported as “binds”, the “stoichiometry N” value [2] is reported as 2 and the binding result (Atg13) is reported as “binds”.

B2: Atg13(P), Atg13 phosphorylated by Atg1 in vitro (natural protein, S. cerevisiae, UniProt Q06628 1-738, looked up)
chain: MVAEEDIEKQVLQLIDSFFLKTTLLICSTESSRYQSSTENIFLFDDTWFEDHSELVSELPEIISKWSHYDGRKELPPLVVETYLDLRQLNSSHLVRLKDHEGHLWNVCKGTKKQEIVMERWLIELDNSSPTFKSYSEDETDVNELSKQLVLLFRYLLTLIQLLPTTELYQLLIKSYNGPQNEGSSNPITSTGPLVSIRTCVLDGSKPILSKGRIGLSKPIINTYSNALNESNLPAHLDQKKITPVWTKFGLLRVSVSYRRDWKFEINNTNDELFSARHASVSHNSQGPQNQPEQEGQSDQDIGKRQPQFQQQQQPQQQQQQQQQQQRQHQVQTQQQRQIPDRRSLSLSPCTRANSFEPQSWQKKVYPISRPVQPFKVGSIGSQSASRNPSNSSFFNQPPVHRPSMSSNYGPQMNIEGTSVGSTSKYSSSFGNIRRHSSVKTTENAEKVSKAVKSPLQPQESQEDLMDFVKLLEEKPDLTIKKTSGNNPPNINISDSLIRYQNLKPSNDLLSEDLSVSLSMDPNHTYHRGRSDSHSPLPSISPSMHYGSLNSRMSQGANASHLIARGGGNSSTSALNSRRNSLDKSSNKQGMSGLPPIFGGESTSYHHDNKIQKYNQLGVEEDDDDENDRLLNQMGNSATKFKSSISPRSIDSISSSFIKSRIPIRQPYHYSQPTTAPFQAQAKFHKPANKLIDNGNRSNSNNNNHNGNDAVGVMHNDEDDQDDDLVFFMSDMNLSKEG
modifications: phosphoserine at 428, 429 and 496 and at several other positions (Supplementary Table 1)
notes: Atg13, S. cerevisiae BY4741; also called phosphorylated Atg13; source: E. coli Rosetta, purified; phosphorylated by adding ATP to fully assembled Atg1^PC
B2: binds (Atg1 [3]).

B3: binds (Atg1 [4]).
